Results from paper PMC3342691 (Nature structural & molecular biology, 2011).

Biological target: Xenopus tropicalis tubulin tyrosine ligase (residues 2–377) (Xenopus tropicalis)
Experiment: AUC

Kd: ~144 µM
Binder: VDSVEGEGEEEGEE [14-residue α–tubulin C-terminal peptide (VDSVEGEGEEEGEE)]
